Article PMC11931385, “Structural and functional analysis of cancer-associated missense variants in the retinoblastoma protein pocket domain” (The Journal of Biological Chemistry, 2025)
No end group written: not given here. TMR = tetramethyl rhodamine dye

T1: Rb^P L572I (human, UniProt P06400 380-788, L572I)
T1 construct: also called variant 31
T1 sequence (looked up): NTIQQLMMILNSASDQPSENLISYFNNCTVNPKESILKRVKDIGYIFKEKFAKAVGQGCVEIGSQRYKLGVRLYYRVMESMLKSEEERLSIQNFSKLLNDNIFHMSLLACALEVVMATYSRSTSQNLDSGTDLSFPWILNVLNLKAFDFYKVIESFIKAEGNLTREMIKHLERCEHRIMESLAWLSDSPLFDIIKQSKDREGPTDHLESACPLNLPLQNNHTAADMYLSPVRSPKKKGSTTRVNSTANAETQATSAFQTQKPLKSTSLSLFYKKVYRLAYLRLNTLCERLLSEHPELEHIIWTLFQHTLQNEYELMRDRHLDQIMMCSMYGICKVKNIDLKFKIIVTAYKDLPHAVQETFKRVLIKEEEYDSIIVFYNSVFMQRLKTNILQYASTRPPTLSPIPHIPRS

T2: Rb^P H699P (human, UniProt P06400 380-788, H699P)
T2 construct: also called variant 63
T2 sequence (looked up): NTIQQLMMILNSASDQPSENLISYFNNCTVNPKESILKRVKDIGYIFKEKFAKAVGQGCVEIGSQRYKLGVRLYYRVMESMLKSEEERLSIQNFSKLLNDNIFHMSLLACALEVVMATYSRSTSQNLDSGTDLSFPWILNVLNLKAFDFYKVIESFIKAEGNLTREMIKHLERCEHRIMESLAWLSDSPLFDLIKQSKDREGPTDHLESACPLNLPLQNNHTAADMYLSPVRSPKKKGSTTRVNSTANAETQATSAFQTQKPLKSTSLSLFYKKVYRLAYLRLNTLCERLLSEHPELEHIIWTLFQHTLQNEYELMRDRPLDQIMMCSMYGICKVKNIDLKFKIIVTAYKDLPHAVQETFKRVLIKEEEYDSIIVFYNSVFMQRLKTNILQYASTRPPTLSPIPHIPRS

T3: Rb^P I703F (human, UniProt P06400 380-788, I703F)
T3 construct: also called variant 64
T3 sequence (looked up): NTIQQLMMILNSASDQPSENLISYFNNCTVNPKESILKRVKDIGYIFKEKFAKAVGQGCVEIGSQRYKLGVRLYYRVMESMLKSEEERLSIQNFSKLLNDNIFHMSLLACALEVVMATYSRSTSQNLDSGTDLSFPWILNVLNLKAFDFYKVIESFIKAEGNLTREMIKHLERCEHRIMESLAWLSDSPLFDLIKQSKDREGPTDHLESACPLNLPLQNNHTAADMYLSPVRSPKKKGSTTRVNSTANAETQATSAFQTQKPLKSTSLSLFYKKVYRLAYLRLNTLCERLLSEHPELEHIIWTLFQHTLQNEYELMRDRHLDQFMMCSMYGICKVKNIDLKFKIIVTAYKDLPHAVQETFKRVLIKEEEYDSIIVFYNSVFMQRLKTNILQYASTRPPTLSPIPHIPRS

T4: Rb^P R741H (human, UniProt P06400 380-788, R741H)
T4 construct: also called variant 69
T4 sequence (looked up): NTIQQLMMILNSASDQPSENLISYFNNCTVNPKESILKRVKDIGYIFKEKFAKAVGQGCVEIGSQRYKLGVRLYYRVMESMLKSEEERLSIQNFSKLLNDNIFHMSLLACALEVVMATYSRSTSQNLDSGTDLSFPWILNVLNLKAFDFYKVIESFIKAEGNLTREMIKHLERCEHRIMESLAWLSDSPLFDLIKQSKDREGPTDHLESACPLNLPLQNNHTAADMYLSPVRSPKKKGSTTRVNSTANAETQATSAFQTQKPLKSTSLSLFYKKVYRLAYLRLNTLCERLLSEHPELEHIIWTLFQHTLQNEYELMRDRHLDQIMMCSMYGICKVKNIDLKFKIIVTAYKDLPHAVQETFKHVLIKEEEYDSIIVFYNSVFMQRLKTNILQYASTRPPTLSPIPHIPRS

T5: Rb^P S751Y (human, UniProt P06400 380-788, S751Y)
T5 construct: also called variant 72
T5 sequence (looked up): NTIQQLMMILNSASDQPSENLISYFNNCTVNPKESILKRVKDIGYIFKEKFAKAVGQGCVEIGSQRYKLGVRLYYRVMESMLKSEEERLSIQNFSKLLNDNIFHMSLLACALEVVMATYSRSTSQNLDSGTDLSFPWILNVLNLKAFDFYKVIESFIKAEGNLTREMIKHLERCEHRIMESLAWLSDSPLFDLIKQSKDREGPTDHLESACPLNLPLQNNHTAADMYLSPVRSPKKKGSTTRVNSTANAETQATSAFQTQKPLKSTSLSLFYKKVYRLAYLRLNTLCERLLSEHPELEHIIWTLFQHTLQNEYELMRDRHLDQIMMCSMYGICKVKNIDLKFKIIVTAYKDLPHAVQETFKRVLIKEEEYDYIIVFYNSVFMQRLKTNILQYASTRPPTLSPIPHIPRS


Key:
Assay in all cases: fluorescence polarisation; 37 °C, after the 25 °C reading ramped over 7 min to 37 °C and 2 min incubation; unlabeled Rb^P against 1.5 nM TMR-E2F1^TD or 7.5 nM TMR-E7^LxCxE; 25 mM Tris pH 8.0, 200 mM NaCl, 1 mM DTT, 0.1% Tween-20; apparent Kd
Conditions in all cases: both partners purified
[1] = target: T1, Rb^P L572I
[2] = target: T2, Rb^P H699P
[3] = target: T3, Rb^P I703F
[4] = target: T4, Rb^P R741H
[5] = target: T5, Rb^P S751Y

Row | Binder | Kd [1] | Kd [2] | Kd [3] | Kd [4] | Kd [5]
1 | {TMR}-GEGIRDLFDCDFGDLTPLD (also called E2F^TD; source: synthetic peptide, bought: GenScript) [TMR-E2F1^TD, peptide of the E2F1 transactivation domain] | 87 nM | 68 nM | 396 nM | 41 nM | 127 nM
2 | DLYCYEQLN (also: TMR label, position not given here, source: synthetic peptide, bought: GenScript) [TMR-E7^LxCxE, LxCxE peptide of the E7 oncoprotein from HPV] | 15 nM | 14 nM | 275 nM | 21 nM | 420 nM
